B1: RNA polymerase I-specific transcription initiation factor RRN6 (Saccharomyces cerevisiae), P32786 (parent)
chain: MSEGQIPSSDVLGSQLGVGVQGASLYCPQENYTTKKQEKPQWLRPVDDTLAEDALDLHIVVKSLLCDTAIRYISDDKVLQESDADDDLITSDIDEDTDNQGDTSIVVNPVIPVVPKDVHFFKKVDVGNDSMFGVNCDTPVSFQDYIPSDLLRNLDDTLQESTNSSRPMQDAFFWDPTVANRLDSQYIQTASDLRNYRDGTEIIAYASGKTGSVLNIAVLTRQNTLHLNRHNNVTSIELHSPIKSIKIPGASESIGRRSNLVGIITENSFQIFRIESVHSRSCDVMVSSSEPLYFVEIDDLQVVDFAFNPWDLQQFAIIDIKGNWSIGRIPKNFNNNNKRKLQLIDNLHGTIFDPEELSSWKRIEWFSHFQKILVFDRSKMIEIDFMNNWQTEVVQAKAWSNIRDYKRIDDKNGILLTSREIIIVGASESNDPVRRISWKHDLDPDDTTLRITVQKVKKPDHILLVAFVYSMRHKRIYMHVFSHRKANLFQSLGCSTVLEIPGGTPTGIETILTLDHIDDESRREEDADENFELVVDFLVKLRNSSEVYYYALSNTQNSEPNKQETPIIVDHPEWASLFNNADEREKESIGALVSQIKLKERERISRVQNLIEHENSHDEDKYLQDLGYRLSIATNELLESWQKTKDESILSGSLSHSKLKNLLENSDSFASIPEFSSLLDQFFQYYQDQDVTFIGFEKLLHLFLHEDVPGLDIFYNKLLQCWVLVSPQAELLTKEIVKDIIWSLARLEKPSLFEPIQNEISRSLSGPYQDIISSWDMDDINEEDESNEFNFDSQFSAPFNGRPPFNLNSQSQIPTIKSSQSSGLARRKRILKTQSQKATPLSQSTQNLSVLPDSMTPAFTLMQPPSSQISFVNDSQPRNSQKAKKKKKRIRGFG
partner: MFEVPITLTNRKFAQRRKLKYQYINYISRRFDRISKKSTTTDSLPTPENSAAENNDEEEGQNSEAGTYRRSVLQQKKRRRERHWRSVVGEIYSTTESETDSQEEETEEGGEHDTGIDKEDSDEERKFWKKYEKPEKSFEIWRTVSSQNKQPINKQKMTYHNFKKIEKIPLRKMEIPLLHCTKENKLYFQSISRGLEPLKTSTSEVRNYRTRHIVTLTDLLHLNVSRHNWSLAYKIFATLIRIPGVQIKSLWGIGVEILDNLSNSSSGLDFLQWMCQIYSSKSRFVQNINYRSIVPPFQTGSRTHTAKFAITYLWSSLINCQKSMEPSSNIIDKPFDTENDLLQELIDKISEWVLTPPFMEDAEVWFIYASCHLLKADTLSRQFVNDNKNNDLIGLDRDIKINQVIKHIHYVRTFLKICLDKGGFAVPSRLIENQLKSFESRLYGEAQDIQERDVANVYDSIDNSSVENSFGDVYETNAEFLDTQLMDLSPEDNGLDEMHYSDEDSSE
B2: RNA polymerase I-specific transcription initiation factor RRN11 (Saccharomyces cerevisiae), Q04712 (parent)
chain: B1 partner
partner: B1 chain

Variants of: B1
Settings: with rrn11_yeast RRN11, Q04712

| Variant | effect of a mutation on the interaction |
| --- | --- |
| L50A;L57A;L64A | decreasing interaction |

Variants of: B2
Settings: with rrn6_yeast RRN6, P32786

| Variant | effect of a mutation on the interaction |
| --- | --- |
| L481A;L488A;L495A | decreasing interaction |
